From paper PMC3682517, “Engineering A-kinase Anchoring Protein (AKAP)-selective Regulatory Subunits of Protein Kinase A (PKA) through Structure-based Phage Selection*^([image sbox.jpg])” (The Journal of Biological Chemistry, 2013)

Tests used:
[1] = molecular target: T1, R_(Select)AKAP18(1–45) D/D domain fragment (UniProt P13861 2-46, Val-3 in R_(Select)AKAP18 | Leu-5 in R_(Select)AKAP18 | Asp-10 in each …, biotinylated when used as AlphaScreen tracer (site not stated)); experiment: AlphaScreen or HTRF; competition binding: biotinylated R subunit D/D domain 0.3 nM (tracer), GST-AKAP RII-binding region 3 nM (target), increasing untagged R subunit D/D domain; IC50 approximates Kd; 20 mM HEPES pH 7.2, 100 mM NaCl, 0.1% BSA; 1 h at 4 °C; one-site competition fit; conditions: both partners purified
T1 construct: PKA regulatory subunit RIIα, residues 1-45 (D/D domain), variant selected by phage display against AKAP18; changes at positions 3, 5, 10 and 14; not shown: V5, C-terminal, kept

[2] = molecular target: T2, wild-type RII(1–45) D/D domain fragment (UniProt P13861 1-45, biotinylated when used as AlphaScreen tracer (site not stated)); experiment: as above; conditions: both partners purified
T2 construct: PKA regulatory subunit RIIα, residues 1-45, docking and dimerization (D/D) domain; His6 tag is PreScission-cleavable; also called WT RII; RII D/D domain; not shown: V5, C-terminal, kept

B1: GST-AKAP18 anchoring helix fragment (domain or fragment)
chain: NGGEPDDAELVRLSKRLVENAVLKAVQQYLEETQNKNKPGEGSSVKTEAADQNGNDNENNRK
Q: Which Kd [1] does the source give for B1 here?
A: The Kd was 162 nM.

Q: And the Kd [2]?
A: Its Kd is 16.3 nM.

B2: GST-AKAP2 anchoring helix fragment (domain or fragment)
chain: GDSPLVDDPLEYQAGLLVQNAIQQAIAEQVDKAVSKTSRDGAEQQGPEATVEEAEAAAFG
Q: For B2, which Kd [2] is on record?
A: The Kd was 12.5 ± 1.8 nM.
